Test results published in US20250281611A1 (BIOSCEPTRE AUST, published 2025).

T1: CD19 (UniProt P15391 20-556, limits assumed)
T1 construct: whole, on cells; also called CD19 on JeKo-1
T1 sequence (looked up): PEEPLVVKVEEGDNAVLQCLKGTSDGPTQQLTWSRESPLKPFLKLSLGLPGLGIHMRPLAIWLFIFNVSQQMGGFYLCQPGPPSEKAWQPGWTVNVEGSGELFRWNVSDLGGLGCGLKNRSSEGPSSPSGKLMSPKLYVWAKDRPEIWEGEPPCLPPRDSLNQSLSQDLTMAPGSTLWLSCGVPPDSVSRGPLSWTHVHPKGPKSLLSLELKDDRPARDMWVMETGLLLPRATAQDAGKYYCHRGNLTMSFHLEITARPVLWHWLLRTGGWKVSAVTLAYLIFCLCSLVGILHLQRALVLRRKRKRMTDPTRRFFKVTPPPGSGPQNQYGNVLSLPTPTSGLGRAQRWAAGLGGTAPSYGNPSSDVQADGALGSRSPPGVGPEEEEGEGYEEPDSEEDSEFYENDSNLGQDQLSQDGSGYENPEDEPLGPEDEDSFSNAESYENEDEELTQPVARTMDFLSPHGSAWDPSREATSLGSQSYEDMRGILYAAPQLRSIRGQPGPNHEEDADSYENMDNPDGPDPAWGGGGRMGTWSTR

B1: CD19 BRIDGE variant B8 (Fab, V domains shown)
VH: EVQLVESGGGLVKPGGSLKLSCAASGYTFTSYVMHWVRQAPGKGLEWIGYINPYNDGTKYNEKFQGRVTISSDKSISTAYMELSSLRSEDTAMYYCARGTYYYGTRVFDYWGQGTLVTVSS
VL: DIVMTQSPATLSLSPGERATLSCRSSKSLQNVNGNTYLYWFQQKPGQSPQLLIYRMSNLNSGVPDRFSGSGSGTEFTLTISSLEPEDFAVYYCMQHLEYPITFGAGTKLEIKR
B2: CD19 BRIDGE variant B9 (Fab, V domains shown)
VH: B1 VH
VL: B1 VL
B3: CD19 BRIDGE variant B14 (Fab, V domains shown)
VH: B1 VH
VL: B1 VL
B4: CD19 BRIDGE variant B13 (Fab, V domains shown)
VH: B1 VH
VL: B1 VL
B5: CD19 BRIDGE variant B10 (Fab)
heavy: EVQLVESGGGLVKPGGSLKLSCAASGYTFTSYVMHWVRQAPGKGLEWIGYINPYNDGTKYNEKFQGRVTISSDKSISTAYMELSSLRSEDTAMYYCARGTYYYGTRVFDYWGQGTLVTVSSASTKGPSVFPLAPSSKSTSGGTAALGCLVKDYFPEPVTVSWNSGALTSGVHTFPAVLQSSGLYSLSSVVTVPSSSLGTQTYICNVNHKPSNTKVDKKVEPKSCHHHHHH
light: GHNYTTRNILPGLNITSTFHKTSGSGKEPKSSDKTHTGSDIVMTQSPATLSLSPGERATLSCRSSKSLQNVNGNTYLYWFQQKPGQSPQLLIYRMSNLNSGVPDRFSGSGSGTEFTLTISSLEPEDFAVYYCMQHLEYPITFGAGTKLEIKRTVAAPSVFIFPPSDEQLKSGTASVVCLLNNFYPREAKVQWKVDNALQSGNSQESVTEQDSKDSTYSLSSTLTLSKADYEKHKVYACEVTHQGLSSPVTKSFNRGEC
B6: CD19 BRIDGE variant B15 (Fab)
heavy: B5 heavy
light: GHNYTTRNILPGLNITSGGGGSEPKSSDKTHTGGGGSDIVMTQSPATLSLSPGERATLSCRSSKSLQNVNGNTYLYWFQQKPGQSPQLLIYRMSNLNSGVPDRFSGSGSGTEFTLTISSLEPEDFAVYYCMQHLEYPITFGAGTKLEIKRTVAAPSVFIFPPSDEQLKSGTASVVCLLNNFYPREAKVQWKVDNALQSGNSQESVTEQDSKDSTYSLSSTLTLSKADYEKHKVYACEVTHQGLSSPVTKSFNRGEC
B7: CD19 BRIDGE variant B12 (Fab)
heavy: B5 heavy
light: GHNYTTRNILPGLNITSTFHKTSGSGKGGGGSEPKSSDKTHTGSDIVMTQSPATLSLSPGERATLSCRSSKSLQNVNGNTYLYWFQQKPGQSPQLLIYRMSNLNSGVPDRFSGSGSGTEFTLTISSLEPEDFAVYYCMQHLEYPITFGAGTKLEIKRTVAAPSVFIFPPSDEQLKSGTASVVCLLNNFYPREAKVQWKVDNALQSGNSQESVTEQDSKDSTYSLSSTLTLSKADYEKHKVYACEVTHQGLSSPVTKSFNRGEC
B8: CD19 BRIDGE variant B6 (Fab)
heavy: B5 heavy
light: GHNYTTRNILPGLNITSTFHKTSGSGKGGGSEPKSSDKTHTDIVMTQSPATLSLSPGERATLSCRSSKSLQNVNGNTYLYWFQQKPGQSPQLLIYRMSNLNSGVPDRFSGSGSGTEFTLTISSLEPEDFAVYYCMQHLEYPITFGAGTKLEIKRTVAAPSVFIFPPSDEQLKSGTASVVCLLNNFYPREAKVQWKVDNALQSGNSQESVTEQDSKDSTYSLSSTLTLSKADYEKHKVYACEVTHQGLSSPVTKSFNRGEC
B9: CD19 BRIDGE variant B16 (Fab)
heavy: B5 heavy
light: GHNYTTRNILPGLNITSTFHKTSGSGKEPKSSDKTHTGGGGSDIVMTQSPATLSLSPGERATLSCRSSKSLQNVNGNTYLYWFQQKPGQSPQLLIYRMSNLNSGVPDRFSGSGSGTEFTLTISSLEPEDFAVYYCMQHLEYPITFGAGTKLEIKRTVAAPSVFIFPPSDEQLKSGTASVVCLLNNFYPREAKVQWKVDNALQSGNSQESVTEQDSKDSTYSLSSTLTLSKADYEKHKVYACEVTHQGLSSPVTKSFNRGEC
B10: CD19 BRIDGE variant B11 (Fab)
heavy: B5 heavy
light: GHNYTTRNILPGLNITSTFHKTSGSGKGSEPKSSDKTHTGSDIVMTQSPATLSLSPGERATLSCRSSKSLQNVNGNTYLYWFQQKPGQSPQLLIYRMSNLNSGVPDRFSGSGSGTEFTLTISSLEPEDFAVYYCMQHLEYPITFGAGTKLEIKRTVAAPSVFIFPPSDEQLKSGTASVVCLLNNFYPREAKVQWKVDNALQSGNSQESVTEQDSKDSTYSLSSTLTLSKADYEKHKVYACEVTHQGLSSPVTKSFNRGEC

Target: T2, nfP2X7 CAR 1
T2 construct: CAR-positive cells gated by the co-expressed EGFR marker; also called nfP2X7 targeted CAR; nfP2X7 CAR on EGFR+ T cells
Assay: flow cytometry, nfP2X7 CAR 1 T cells (EGFR+ gate), anti-His-FITC detection
Method: (§1) nfP2X₇ CAR T cells were incubated with different BRiDGE variants at saturating concentrations. […] The MFI intensity correlates with the number of secondary bound antibodies bound to the BRiDGEs that are only detected if they are bound to the CAR T cells. EGFR was used as a marker gene to detect the CAR expression. Thus, the EGFR+ T cell population was defined as the CAR expressing cells and the EGFR− T cell population was defined as the CAR negative subset. MFI: median fluorescence intensity. EGFR: epidermal growth factor receptor. BLItz: Bio-Layer interferometry (BLI) technology using HIS-tag identification tips. HIS-tag MFI Ratio: relative index that is calculated by the testing condition MFI divided by the control MFI, which corresponds to the MFI measured on EGFR+ T cells (defined as CAR positive cells) divided by the MFI measured on the EGFR− T cells (defined as CAR negative cells). […] The higher the MFIR, the stronger the binding.

MFI HisTag FITC in EGFR+ Population	Binder
2.53	B1
2.32	B2
2.41	B3
2.13	B4
2.26	B5
2.61	B6
2.12	B7
1.99	B8
2.34	B9
2	B10

Target: T1, CD19
Assay: flow cytometry, JeKo-1 cells, bridge at saturating conc., BIL03s-AF647 detection
Method: (§2) JeKo-1 cells were incubated with different CD19 BRiDGE variants at saturating concentrations. […] The MFI intensity correlates with the number of secondary bound antibodies bound to the CD19 BRiDGE variants that are only detected if they are bound to the JeKo-1 cells. MFI: median fluorescence intensity. BLitz: Bio-Layer interferometry (BLI) technology using HIS-tag identification tips. […] The higher the MFIR, the stronger the binding.

MFI Bil03 AF647	Binder
10.6	B1
4.82	B2
7.27	B3
5.28	B4
7.71	B5
8.58	B6
9.08	B7
5.29	B8
8.08	B9
6.43	B10

Target: T1, CD19
Assay: flow cytometry, JeKo-1 cells, anti-His-FITC detection, MFI over no-bridge control
Method: as §2

MFIR HisTag FITC	Binder
4.65	B1
3.9	B2
4.05	B3
3.88	B4
4.25	B5
3.78	B6
4.36	B7
4.32	B8
3.71	B9
4	B10

Target: T1, CD19
Assay: flow cytometry, JeKo-1 cells, bridge at saturating conc., anti-His-FITC detection
Method: as §2

MFI HisTag FITC	Binder
3.58	B1
3	B2
3.12	B3
2.99	B4
3.27	B5
2.91	B6
3.36	B7
3.33	B8
2.86	B9
3.08	B10

Target: T2, nfP2X7 CAR 1
Assay: flow cytometry, anti-His-FITC, MFI on EGFR+ (CAR+) over EGFR- (CAR-) T cells
Method: as §1

HisTag MFI Ratio of EGFR+/EGFR-	Binder
4.4	B1
4.1	B2
4.5	B3
4.1	B4
4.3	B5
4.8	B6
4.2	B7
4.1	B8
4.6	B9
4	B10

Target: T1, CD19
Assay: flow cytometry, JeKo-1 cells, BIL03s-AF647 detection, MFI over no-bridge control
Method: as §2

MFIR BIL03 AF647	Binder
23	B1
10.5	B2
15.8	B3
11.5	B4
16.8	B5
18.7	B6
19.7	B7
11.5	B8
17.6	B9
14	B10

Target: T2, nfP2X7 CAR 1
Assay: flow cytometry, anti-His-FITC, MFI on EGFR+ (CAR+) T cells over background 0.44
Method: as §1

HisTag MFI Ratio (background 0.44)	Binder
5.8	B1
5.3	B2
5.5	B3
4.8	B4
5.1	B5
5.9	B6
4.8	B7
4.5	B8
5.3	B9
4.5	B10
